The record followed here is publication PMC11285730 (Open Biology, 2024).

For the assay, the target named is SARS-CoV-2 Wuhan RBD, de-glycosylated (SARS-CoV-2, UniProt P0DTC2). Put plainly: crystal structure. The settings on record: both partners purified.

B1: A8 monomer (VHH)
VHH: QVQLVESGGGLVQAGGSLRLSCAASGGTFSTAAMGWFRQAPGEERECVASIGWRGVRTWYADSVKGRFTISRDNPQNTVYLQMNNLKSGDTAVYYCAASVGNYGLPWAHFEYDFWGQGIQVTVSS
Regarding B1, the binding result was “binds”.

B2: B5-5 monomer (VHH)
VHH: QVQLVESGGGLVQPGGSLRLSCAVFGSTLDNYSVGWFRQLPGKEREGLACFSRRYGAPYYADSAKDRFTISRDNAKNTVDLQLNGLKPEDTAVYYCATRSGPYCTTSVSDFDDWGRGTQVTVSS
Take B2: the binding result is given as “binds”.
